Results taken from publication PMC12056068 (Nature Communications, 2025).

Legend:
GST-SUVH3 = target: T1, GST-SUVH3 (Arabidopsis thaliana, UniProt Q9C5P4 1-669); test: pull-down
T1 sequence (looked up): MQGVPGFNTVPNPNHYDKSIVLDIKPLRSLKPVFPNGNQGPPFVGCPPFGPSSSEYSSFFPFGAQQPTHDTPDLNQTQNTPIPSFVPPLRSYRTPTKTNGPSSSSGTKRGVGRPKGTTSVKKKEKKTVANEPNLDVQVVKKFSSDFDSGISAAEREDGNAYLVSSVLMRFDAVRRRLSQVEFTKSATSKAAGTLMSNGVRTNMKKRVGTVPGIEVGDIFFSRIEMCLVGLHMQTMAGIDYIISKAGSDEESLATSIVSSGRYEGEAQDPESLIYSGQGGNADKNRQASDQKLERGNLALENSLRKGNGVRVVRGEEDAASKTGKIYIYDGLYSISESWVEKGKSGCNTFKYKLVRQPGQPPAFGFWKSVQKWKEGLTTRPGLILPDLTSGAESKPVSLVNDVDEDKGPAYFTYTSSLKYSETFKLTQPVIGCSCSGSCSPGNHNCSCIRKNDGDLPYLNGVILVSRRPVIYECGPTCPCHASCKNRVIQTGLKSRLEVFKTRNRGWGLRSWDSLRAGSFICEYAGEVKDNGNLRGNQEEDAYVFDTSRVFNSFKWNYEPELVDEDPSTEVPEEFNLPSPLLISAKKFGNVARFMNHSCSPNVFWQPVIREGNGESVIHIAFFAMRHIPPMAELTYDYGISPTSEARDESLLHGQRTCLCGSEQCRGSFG

SUVH1 = target: T2, SUVH1 (Arabidopsis thaliana, UniProt Q9FF80 1-670); test: pull-down
T2 sequence (looked up): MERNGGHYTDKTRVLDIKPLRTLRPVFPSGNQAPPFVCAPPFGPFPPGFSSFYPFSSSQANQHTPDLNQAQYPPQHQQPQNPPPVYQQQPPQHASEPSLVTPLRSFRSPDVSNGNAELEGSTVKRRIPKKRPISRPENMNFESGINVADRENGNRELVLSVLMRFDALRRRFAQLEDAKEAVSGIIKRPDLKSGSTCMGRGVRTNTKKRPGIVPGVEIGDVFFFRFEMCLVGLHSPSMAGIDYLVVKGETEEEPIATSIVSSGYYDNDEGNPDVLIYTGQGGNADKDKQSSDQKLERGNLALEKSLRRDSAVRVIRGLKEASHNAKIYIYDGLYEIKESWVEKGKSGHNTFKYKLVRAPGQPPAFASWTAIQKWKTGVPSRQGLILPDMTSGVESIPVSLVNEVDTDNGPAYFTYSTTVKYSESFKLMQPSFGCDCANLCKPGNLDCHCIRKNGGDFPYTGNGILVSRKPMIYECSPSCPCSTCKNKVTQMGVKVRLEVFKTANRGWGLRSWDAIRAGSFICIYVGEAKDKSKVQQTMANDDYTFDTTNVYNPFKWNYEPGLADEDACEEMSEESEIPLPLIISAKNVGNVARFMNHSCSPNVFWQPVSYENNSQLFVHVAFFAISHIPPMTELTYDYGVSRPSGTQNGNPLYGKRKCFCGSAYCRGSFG

B1: His-LEC2 (natural protein, Arabidopsis thaliana, UniProt Q1PFR7 1-363, looked up)
chain: MDNFLPFPSSNANSVQELSMDPNNNRSHFTTVPTYDHHQAQPHHFLPPFSYPVEQMAAVMNPQPVYLSECYPQIPVTQTGSEFGSLVGNPCLWQERGGFLDPRMTKMARINRKNAMMRSRNNSSPNSSPSELVDSKRQLMMLNLKNNVQISDKKDSYQQSTFDNKKLRVLCEKELKNSDVGSLGRIVLPKRDAEANLPKLSDKEGIVVQMRDVFSMQSWSFKYKFWSNNKSRMYVLENTGEFVKQNGAEIGDFLTIYEDESKNLYFAMNGNSGKQNEGRENESRERNHYEEAMLDYIPRDEEEASIAMLIGNLNDHYPIPNDLMDLTTDLQHHQATSSSMPPEDHAYVGSSDDQVSFNDFEWW
binding result (GST-SUVH3): binds | binding result (SUVH1): binds
